Results as given in the supplement of paper PMC12764529.
± gives the half width of the 95% confidence interval.

Columns and labels:
[1] = folding stability dG unfold from chymotrypsin proteolysis; higher = more stable
Summary of the method: (§1)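 How resistant each design was to proteolysis was captured as K50, inferred by Bayesian fitting of sequencing counts. Unfolding free energy was then derived relative to a sequence-predicted unfolded-state K50 and a shared folded-state K50, per protease or combined. Digestion used trypsin and chymotrypsin at 11 threefold-diluted concentrations plus a no-protease condition, on mini-proteins under 80 residues without cysteine in a PA-tagged cDNA display construct. Designs were kept only when AlphaFold2 dimer inter-PAE was above 15.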

[2] = folding stability dG unfold (combined trypsin and chymotrypsin); higher = more stable
Summary of the method: as §1

[3] = folding stability dG unfold from trypsin proteolysis; higher = more stable
Summary of the method: as §1

Sequence | folding stability dG unfold [1] | folding stability dG unfold [2] | folding stability dG unfold [3]
ADPDVKVEVEFEVLPDGRLRVTAVDPDTGVVVEVEAPVDGAGPVTVRVRVRVFDPETGEVSTFEAEFTLPLS [r1_45_TrMRF] | 4.33 ± 0.15 kcal/mol | 4.14 ± 0.17 kcal/mol | 3.71 ± 0.12 kcal/mol
AFTITGIEVTYDPATNTVTVTATVTGPDGSTATVTLTLTLPAPPPPVTTVTRTETRTLPDGTTVTVTETFTS [r1_125_TrROS_Hall] | 4.09 ± 0.048 kcal/mol | 3.43 ± 0.13 kcal/mol | 2.21 ± 0.037 kcal/mol
DDNQEYEYENPGGMKMRVEYNPSTGNMKVEMEPVPPVPPIPPIMIPLDLTPEQANRLINELQDLGIPIMVGS [r1_242_TrROS] | 1.33 ± 0.086 kcal/mol | 1.16 ± 0.16 kcal/mol | 0.906 ± 0.06 kcal/mol
DTVTIVVEGMSEEEVLEKARAAAEELAKEGKTVEIVVKLSPEALKKAGVEKVEEVEDEETGLLVIKVEVKPS [r1_467_TrROS_Hall] | 0.599 ± 0.07 kcal/mol | 0.684 ± 0.28 kcal/mol | 1.04 ± 0.13 kcal/mol
DVVIDIDELKKAIEKAKPGEVLELTVKVKDKATGKEYTVRVTVTVNPDGKTVTVTVVNEETGEVIETITLPS [r1_165_TrROS_Hall] | 5.23 ± 0.22 kcal/mol | > 6 kcal/mol | 3.94 ± 0.21 kcal/mol
EEWYIIQIKIEYWGPNGKEREIDIMVLIPPEQMTPDQLKQVKEIAREIAENLQENGYNIEINVEIIPLDDMS [r1_221_TrROS] | 3.9 ± 0.23 kcal/mol | > 6 kcal/mol | 3.07 ± 0.26 kcal/mol
EKKTLTVLIEVPPEKLEEALARALELAKALPPGQKLEIEIVNEDGTVVRVTVTVDENGEIHIDVEVLPRPPS [r1_350_TrROS_Hall] | 2.36 ± 0.16 kcal/mol | 2.23 ± 0.16 kcal/mol | 1.76 ± 0.073 kcal/mol
ENYVAIEITMEMPNPDGMEMKFDLKIIKLDPDDGKFAIEMSMEMENPNGKPYRHPMWFVIPADELKEFLEAS [r1_371_TrROS] | 4.12 ± 0.12 kcal/mol | 3.54 ± 0.28 kcal/mol | 2.56 ± 0.22 kcal/mol
GEFVSVESVERLPDGTLVVKIKYKPPSPDTPVTVTVSHPDSSVTFTMDPTSSTITVTVPPSVSDVSVTVVGS [r1_428_JUSTAS] | 3.58 ± 0.12 kcal/mol | 3.29 ± 0.093 kcal/mol | 2.6 ± 0.1 kcal/mol
GENVPPKTVTVSAPVDPTTGRVTVNPGNTTVSISLPDGADVTLSFSTSMSEEEQLAFVEKEAAALNAALAAS [r1_25_JUSTAS] | 0.443 ± 0.055 kcal/mol | 1.18 ± 0.048 kcal/mol | 1.64 ± 0.027 kcal/mol
GHRIKVNTVHTPSGTFSLTATVRYPDGTTVTYSFNLPSSPNDTFSVSVPESVPLTTVTTSTFQGDTETPTSS [r1_70_JUSTAS] | 1.69 ± 0.18 kcal/mol | 1.49 ± 0.12 kcal/mol | 1.02 ± 0.044 kcal/mol
GKYYLVNIVVVNEDNKSLVFPKVFPENDPEKVLEEIKKLLEELGFKAKKLITVFEKLPDGNVLVNAVVEVGS [r1_281_TrMRF] | 5.63 ± 0.25 kcal/mol | 5.57 ± 0.3 kcal/mol | 3.79 ± 0.15 kcal/mol
GLEVKVDITVDPVGGGTRIPVTVSVPGRPIAQATADVDPETGVVNLDLGAESEEERKAALEKLKEAGIKLGS [r1_455_JUSTAS] | 1.42 ± 0.054 kcal/mol | 1.35 ± 0.083 kcal/mol | 1.1 ± 0.049 kcal/mol
GMPYTVDVVIEEAEDGVIIPIKLSVDGALVAEAVAPVDPVTKKVVIKPGAASKEALDVALEKLKELGIEPGS [r1_455_TrMRF] | 0.537 ± 0.17 kcal/mol | 0.162 ± 0.26 kcal/mol | -0.487 ± 0.4 kcal/mol
GMTIVPPSSPVTDSSGNYEEYPDSQLYKDSSTGKPIIAFPMSPEELAAGDPAALARREALAKEYGLPEIEPS [r1_438_JUSTAS] | 0.0509 ± 0.37 kcal/mol | 0.0139 ± 0.25 kcal/mol | -0.579 ± 0.35 kcal/mol
GMTVTHTAEAGGRPLTITVTRSPDGWEVTVTDPDGTPIFSKTIPSDKNATLTLTDSAGNPLVTVNITLPPES [r1_34_JUSTAS] | 3.8 ± 0.046 kcal/mol | 3.91 ± 0.051 kcal/mol | 4.15 ± 0.11 kcal/mol
GPEVLVETFVDPETGRVVVRVYFPEPDRLVLAVGERGGDGVRVLVVEYEADPLEPRFAEFEFPALPEGFDES [r1_404_TrMRF] | 2.59 ± 0.054 kcal/mol | 2.44 ± 0.092 kcal/mol | 2.52 ± 0.14 kcal/mol
GSARFEASAFLAELPFPPQRVLVVLVRGEDGRVRLFVFFPDGSVVEFDLETGRVVRVIDLPDAPLPPGLLES [r1_409_TrMRF] | 3.63 ± 0.075 kcal/mol | 3.39 ± 0.12 kcal/mol | 2.9 ± 0.071 kcal/mol
GSSMTVEVSESVVPGTGKKILHVTVTFGGSDPEVARAQALAYVEKETGLPVVSVTVTRAPDSWTVNMTVVGS [r1_337_JUSTAS] | 2.63 ± 0.032 kcal/mol | 2.81 ± 0.083 kcal/mol | 2.86 ± 0.085 kcal/mol

Sequence | folding stability dG unfold [1] | folding stability dG unfold [2] | folding stability dG unfold [3]
IETGEYDIEIELPAPNGYKVKVKFKFVKVDPENGKVYVEVELEVTLPGGKPIKLPLRLVMPAEEIKKFLESS [r1_371_TrMRF] | 4.94 ± 0.053 kcal/mol | 4.64 ± 0.092 kcal/mol | 2.98 ± 0.072 kcal/mol
KIEIKVHPDGTLLIKAPLELIDLLIKLLKEKGYDAKILKIDPENGYVLIPVKPKPPPIPKPTPEELLKALFS [r1_78_TrMRF] | 3.78 ± 0.1 kcal/mol | 3.35 ± 0.2 kcal/mol | 2.29 ± 0.096 kcal/mol
KKEEEIKKLEEAVREALKKKGLEVKIVEVKKNKNGEYTLTIELKDGKKIEITIKKEKMTVEDILKKLKELLS [r1_279_TrROS_Hall] | 4.04 ± 0.15 kcal/mol | 4.13 ± 0.18 kcal/mol | 4.13 ± 0.23 kcal/mol
KKKIKKIEIEIKIPVKSIEEAKEEVEKLAKELKEKFPEIKKIKVEIIKYDEKKGYITVKITIEVNGKKIEFS [r1_52_TrROS_Hall] | 1.24 ± 0.13 kcal/mol | 1.52 ± 0.28 kcal/mol | 1.56 ± 0.2 kcal/mol
KKKKKKKKKKKKKEKVKVRIRIRLKVKDKETGEWKEIEVEIEIEMSKEEAEEIAKKLAEKYNFEIVEIEIES [r1_488_TrROS_Hall] | 3.46 ± 0.19 kcal/mol | 3.28 ± 0.21 kcal/mol | 2.95 ± 0.079 kcal/mol
KKKYLVLLEARPRLYEFDENGKLIREIPLLVPFIGEGNDPEKVKEAAEKLFGEEVKILEVFPLEEVEEGKIS [r1_493_TrMRF] | 2.692 ± 0.017 kcal/mol | 2.4 ± 0.072 kcal/mol | 1.85 ± 0.065 kcal/mol
KLKFKVKIKNPKTNETVEVEVELNEDGTVTVKVNGKLIAKFKIVAKPKPKVETKKVKDANGNEKTYKKVKFS [r1_496_TrROS_Hall] | 2.41 ± 0.27 kcal/mol | 1.91 ± 0.41 kcal/mol | 1.15 ± 0.12 kcal/mol
KPKIKITITFNKETGKITITAVNKDNNVVVKTEFELKDGKLTMKIEVKNKKTNKTYTIEIEIKLLKPGEKLS [r1_404_TrROS_Hall] | 4.32 ± 0.094 kcal/mol | 3.86 ± 0.32 kcal/mol | 2.58 ± 0.19 kcal/mol
KRVTIMFNFPPGKPLPLSELAGFARNSGGEVKIQIYNPDDGKWQEITFPGGKIDDVEMFPDGWMVMITVKGS [r1_238_TrROS] | 2.83 ± 0.089 kcal/mol | 2.52 ± 0.15 kcal/mol | 2.09 ± 0.061 kcal/mol
KTITIIIPMTPEQIEELAKALAEKLGLSEEEVEVVKVEKIKNEDGELYVKITIKLKETGKEITIIVPLKDLS [r1_21_TrROS_Hall] | 3.2 ± 0.12 kcal/mol | 2.8 ± 0.12 kcal/mol | 1.76 ± 0.08 kcal/mol
KTITIVIKNEDGELYVIKIKLKNGEEKEIVFKSLEELKNAIAKELGLSKEKIEIVEIKPLSPEELKELEKKS [r1_119_TrROS_Hall] | 3.96 ± 0.14 kcal/mol | 3.33 ± 0.35 kcal/mol | 1.99 ± 0.13 kcal/mol
SADKIKIPPGFQIFGPNGQPIRPGTEVEVEDIEPHPGGGEFMFEVKIKSPDDGEEHNWPIMIRFPPAGKSAG [r14_258_TrROS] | -0.395 ± 0.24 kcal/mol | – | 0.755 ± 0.13 kcal/mol
SAGGDPAPLEVDIEMDPDNGRIRIEIRAGGSKVIYEYEIPLDGYEFKVKIIVVDGKIVIEIEFEMPDSAGGS [r16_631_TrROS] | 3.81 ± 0.27 kcal/mol | – | 4.27 ± 0.55 kcal/mol
SAGGKRKIMIPMDEMEEKFGIPPNQTVEELAKYINPNYKIEVDNVRYEKDENGKERYWVKVEIEPPKDSAGG [r13_723_TrROS] | -0.136 ± 0.61 kcal/mol | – | 0.739 ± 0.25 kcal/mol
SAGGSAGGKKKKPPPLVVVKIEITNPNGEKKELTLVFPSLEDAKAAIEALLPPGYTAKVEIKPLSAGGSAGG [r6_289_TrROS_Hall] | 3.69 ± 0.37 kcal/mol | – | 3.16 ± 0.35 kcal/mol
SAGGSAGGSAGEEEVEPPPEVVVRVRFFDKDGKEVLEVEMSLDELRALAEAGLVEVELEPSAGGSAGGSAGG [r11_159_TrROS_Hall] | 2.63 ± 0.33 kcal/mol | – | 2.97 ± 0.25 kcal/mol
SAGGSAGGSAGGGKYRLKLRFTFTNAAGGSSELELEVEIEIPPPPLIAPDADGHWYSLTSAGGSAGGSAGGS [r10_330_TrMRF] | 5.31 ± 0.65 kcal/mol | – | 3.86 ± 0.27 kcal/mol
SEEIAKKIADELKKAGYEVVKVEVTYDKETKKVTIKIVVKDKKTNEYYKITIKLNEETGEIVEVKIEKLPSA [r9_814_TrROS_Hall] | 4.14 ± 0.41 kcal/mol | – | 2.96 ± 0.42 kcal/mol
